Data as given in article PMC7780238, “Structures of ISC th4 transpososomes reveal the role of asymmetry in copy‐out/paste‐in DNA transposition”.

Legend:
[1] = target: ISCth4 transposase (TnpA) (Clostridium thermocellum (ATCC 27405)); assay: AUC; sedimentation velocity, TnpA alone at 0.5-2 uM, 20 C, 50,000 RPM, 10 mM HEPES pH 7.5, 100 mM, 0.3 mM TCEP; monomer to dimer
[2] = target: ISCth4 transposase (TnpA) (Clostridium thermocellum (ATCC 27405)); assay: AUC; sedimentation velocity, TnpA (0.5 or 5 uM) with molar excess of TIR DNA oligonucleotides (R-TIR26 at 4:1 DNA:TnpA; R35(j6)L35 or R35r41 with increasing DNA), 20 C, 10 mM HEPES pH 7.5, 100 mM, 0.3 mM TCEP
[3] = target: T1, ISCth4 transposase (TnpA) (Clostridium thermocellum ATCC 27405, UniProt A3DBR0 1-407); assay: X-ray crystallography; PCC; TnpA dimer on one DNA, no metal in active site; 3.5 A native; SEC: 10 mM HEPES pH 7.5, 100 mM NaCl, 0.3 mM TCEP, 4 C. Crystals: PCC 25 mM HEPES pH 7.5, 150 mM NaCl, 2 mM TCEP, 20 C; PRC/STC1 10 mM HEPES pH 7.5, 100 mM NaCl; conditions: protein: recombinant; tags: Trx-His-TEV fusion removed by TEV; chain copies: 2; blunt
T1 sequence: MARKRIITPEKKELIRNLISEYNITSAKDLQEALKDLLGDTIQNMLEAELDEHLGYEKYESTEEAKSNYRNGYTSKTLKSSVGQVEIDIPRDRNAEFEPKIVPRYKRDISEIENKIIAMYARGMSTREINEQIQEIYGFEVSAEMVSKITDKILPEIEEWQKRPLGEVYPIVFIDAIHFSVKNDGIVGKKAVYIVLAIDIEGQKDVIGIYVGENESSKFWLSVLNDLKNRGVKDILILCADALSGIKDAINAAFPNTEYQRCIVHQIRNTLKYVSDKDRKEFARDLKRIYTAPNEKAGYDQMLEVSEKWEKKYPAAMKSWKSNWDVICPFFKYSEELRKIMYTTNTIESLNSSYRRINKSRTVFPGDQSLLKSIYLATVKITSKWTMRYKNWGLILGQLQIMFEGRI

[4] = target: T1, ISCth4 transposase (TnpA); assay: X-ray crystallography; PRC; TnpA dimer on one DNA; 10 mM CaCl2 in precipitant; SEC: 10 mM HEPES pH 7.5, 100 mM NaCl, 0.3 mM TCEP, 4 C. Crystals: PCC 25 mM HEPES pH 7.5, 150 mM NaCl, 2 mM TCEP, 20 C; PRC/STC1 10 mM HEPES pH 7.5, 100 mM NaCl; conditions: protein: recombinant; tags: Trx-His-TEV fusion removed by TEV; chain copies: 2; blunt
[5] = target: T1, ISCth4 transposase (TnpA); assay: X-ray crystallography; STC1; TnpA dimer on one DNA; ZnCl2 in drop; SEC: 10 mM HEPES pH 7.5, 100 mM NaCl, 0.3 mM TCEP, 4 C. Crystals: PCC 25 mM HEPES pH 7.5, 150 mM NaCl, 2 mM TCEP, 20 C; PRC/STC1 10 mM HEPES pH 7.5, 100 mM NaCl; conditions: protein: recombinant; tags: Trx-His-TEV fusion removed by TEV; chain copies: 2; 3 strands; blunt outer ends; 1-nt gap between S68 and S66
[6] = target: T1, ISCth4 transposase (TnpA); assay: SEC; 40 uM TnpA; ~450 kDa, octamer with 4 TIRs; behaves like R-TIR; SEC: 10 mM HEPES pH 7.5, 100 mM NaCl, 0.3 mM TCEP, 4 C. Crystals: PCC 25 mM HEPES pH 7.5, 150 mM NaCl, 2 mM TCEP, 20 C; PRC/STC1 10 mM HEPES pH 7.5, 100 mM NaCl; conditions: protein: recombinant; tags: Trx-His-TEV fusion removed by TEV; chain copies: 2; blunt
[7] = target: T1, ISCth4 transposase (TnpA); assay: SV AUC; 5 uM TnpA; 7.9 S, 138 kDa dimer:1 DNA, plus ~12 S at DNA:TnpA 0.25:1; SEC: 10 mM HEPES pH 7.5, 100 mM NaCl, 0.3 mM TCEP, 4 C. Crystals: PCC 25 mM HEPES pH 7.5, 150 mM NaCl, 2 mM TCEP, 20 C; PRC/STC1 10 mM HEPES pH 7.5, 100 mM NaCl; conditions: protein: recombinant; tags: Trx-His-TEV fusion removed by TEV; chain copies: 2; label: 5'FAM on strand 1 in the labeled version; blunt
[8] = target: T1, ISCth4 transposase (TnpA); assay: SV AUC; 5 uM TnpA; ~7.9 S, plus ~12 S at DNA:TnpA 0.25:1; SEC: 10 mM HEPES pH 7.5, 100 mM NaCl, 0.3 mM TCEP, 4 C. Crystals: PCC 25 mM HEPES pH 7.5, 150 mM NaCl, 2 mM TCEP, 20 C; PRC/STC1 10 mM HEPES pH 7.5, 100 mM NaCl; conditions: protein: recombinant; tags: Trx-His-TEV fusion removed by TEV; chain copies: 2; blunt

## ISCth4 transposase (TnpA) (enzyme)
[1]
  stoichiometry N: 2
[2]
  stoichiometry N: 2

B1: R-TIR26 (dsDNA)
DNA 1: GGCAGTGTAAATATTTTTGTGTAAAC
DNA 2: GTTTACACAAAAATATTTACACTGCC
[3]
  binding result: binds

B2: fR-TIR26 (dsDNA)
DNA 1: TTTTTGGGCAGTGTAAATATTTTTGTGTAAAC
DNA 2: GTTTACACAAAAATATTTACACTGCCCAAAAA
[4]
  binding result: binds

B3: R26(j6)L15-5'rec (dsDNA)
DNA 1: GTTTACACAAAAATATTTACACTGCCGTTTTGGAGATTGTAAAATAT
DNA 2: ATATTTTACAATCTCCAAAAC
DNA 3: GCAGTGTAAATATTTTTGTGTAAAC
[5]
  binding result: binds

B4: L-TIR26 (dsDNA)
DNA 1: GAGATTGTAAAATATTTTATGTAAAC
DNA 2: GTTTACATAAAATATTTTACAATCTC
[6]
  binding result: binds

B5: R35(j6)L35 (dsDNA)
DNA 1: GCACTGGATGTTTACACAAAAATATTTACACTGCCTTTTTTGAGATTGTAAAATATTTTATGTAAACAGTGCACTG
DNA 2: CAGTGCACTGTTTACATAAAATATTTTACAATCTCAAAAAAGGCAGTGTAAATATTTTTGTGTAAACATCCAGTGC
[7]
  binding result: binds

B6: R35r41 (dsDNA)
DNA 1: GCACTGGATGTTTACACAAAAATATTTACACTGCCTTTTTTTACCTAGTCATCAATGCCTACGTACGTAACGTTAC
DNA 2: GTAACGTTACGTACGTAGGCATTGATGACTAGGTAAAAAAAGGCAGTGTAAATATTTTTGTGTAAACATCCAGTGC
[8]
  binding result: binds
